{"source": "patent US12678457B2", "about": "“Blood-brain barrier-penetrating nanotheranostics for acute and chronic neurodegenerative diseases and the like” (THE GOVERNING COUNCIL OF THE UNIVERSITY OF TORONTO, priority 2020, dated 2026)", "assay": "Pharmacokinetic study of GDNF-TPN (human GDNF ELISA)", "assay_type": "in vivo, healthy CD-1 mice", "conditions": "after i.v. injection", "procedure": "Healthy CD-1 mice were randomly allocated into three treatment groups and received a single i. v. injection of GDNF-TPN, Free GDNF or saline at a matched dose of 15 mg GDNF/kg. At 0.5, 1, 2, 4, 6 and 24 hours after injection, whole blood was collected in heparinized tubes from ketamine anesthetized mice by cardiac puncture. Following perfusion with ice-cold saline via the left ventricle, the brains and organs were harvested, rinsed in PBS, weighted, snap-frozen and stored at −80° C. for further analysis. The mouse tissues were homogenized with RIPA buffer containing protease inhibitors and the GDNF was assayed using Human GDNF Elisa kit (Abcam, CA) under manufacture's protocol. […] Free GDNF was quickly eliminated from the blood within 2 hours after injection."}
{"molecule": "glial cell line-derived neurotrophic factor (protein, UniProt P39905 78-211, looked up, Human GDNF, free protein solution used as comparator) Glial cell line-derived …: SPDKQMAVLPRRERNRQAAAANPENSRGKGRRGQRGKNRGCVLTAIHLNVTDLGLGYETKEELIFRYCSGSCDAAETTYDKILKNLSRNRRLVSDKVGQACCRPIAFDDDLSFLDDNLVYHILRKHSAKRCGCI", "values": [{"measurement": "Time to elimination from the blood", "result": "≤ 2", "unit": "h"}]}
